B1: PE domain of LipY (domain or fragment)
chain: MVSYVVALPEVMSAAATDVASIGSVVATASQGVAGATTTVLAAAEDEVSAAIAALFSGHGQDYQALSAQLAVFHERFVQALTGAAKGYAAAELANASLLQSEFASGIGNGFATIHQEIQRAPTALAAGFTQVPPFAAAQAGIFTGTPSG
notes: LipY, Mycobacterium tuberculosis, residues 1-149 (PE domain with the linker up to the cleavage site); not shown: His tag, C-terminal, kept
B2: LipY (enzyme)
chain: MVSYVVALPEVMSAAATDVASIGSVVATASQGVAGATTTVLAAAEDEVSAAIAALFSGHGQDYQALSAQLAVFHERFVQALTGAAKGYAAAELANASLLQSEFASGIGNGFATIHQEIQRAPTALAAGFTQVPPFAAAQAGIFTGTPSGAAGFDIASLWPVKPLLSLSALETHFAIPNNPLLALIASDIPPLSWFLGNSPPPLLNSLLGQTVQYTTYDGMSVVQITPAHPTGEYVVAIHGGAFILPPSIFHWLNYSVTAYQTGATVQVPIYPLVQEGGTAGTVVPAMAGLISTQIAQHGVSNVSVVGDSAGGNLALAAAQYMVSQGNPVPSSMVLLSPWLDVGTWQISQAWAGNLAVNDPLVSPLYGSLNGLPPTYVYSGSLDPLAQQAVVLEHTAVVQGAPFSFVLAPWQIHDWILLTPWGLLSWPQINQQLGIAA
notes: LipY, PE protein with a C-terminal triglyceride lipase domain, Mycobacterium tuberculosis; 45 kDa; full length (LipYΔPE ends at residue 437); also called full length LipY; not shown: His tag, C-terminal, kept

Molecular target: the molecule itself
Assay: SEC; […] (20 mM HEPES pH 7, 100 mM NaCl, 10% glycerol); […]

| Protein | binding result |
| --- | --- |
| B1 | binds |
| B2 | binds |

— PMC4536007, “Modulation of the Activity of Mycobacterium tuberculosis LipY by Its PE Domain” (PLoS ONE, 2015)
